Measurements from patent US20230000834A1, “PHYSIOLOGICALLY ACTIVE SUBSTANCE BOUND TO BIOTIN MOIETY, AND COMPOSITION FOR ORAL ADMINISTRATION INCLUDING SAME” (priority 2019, published 2023).
Non-standard residues stand in square brackets, D forms with d. No end group written: not given here. biotin moiety B2 = not defined here; biotin moiety B3 = not defined here; Aib = CC(C)(N)C(=O)O

Assays:
in vivo = details: SD, rat
Experimental: The specimens were administered by subcutaneous injection and orally in amounts of 20 μg/kg to experimental rats (SD rat) with a body weight of approximately 200 g, then blood serum was isolated and enzyme-linked immunosorbent assays were carried out to measure change in blood drug concentration over time. Blood samples were collected from the jugular vein. A polypeptide having the amino acid sequence of SEQ. ID. No. 6 was used as the control.

blood glucose = experiment: Intraperitoneal glucose tolerance test after oral administration, Embodiments 5 and 6; type: in vivo, mice (C57BL/6); details: C57BL/6 mice; 500 μg/kg oral at -20 minutes; glucose 2 g/kg intraperitoneal
Experimental: To confirm glucose tolerance, Embodiments 5 and 6 were orally administered to mice, and blood glucose regulation efficacy was measured through an intraperitoneal glucose tolerance test.
To measure peritoneal glucose tolerance in an animal model, 100 μl of specimen (500 μg/kg, SEQ. ID. No. 2) was orally administered at −20 minutes to 9-week-old male mice (C57BL/6), followed by intraperitoneal injection of 200 μl glucose (2 g/kg) and observation of blood glucose changes in blood collected from the tail vein at −20, 0, 20, 40, 60, 90 and 120 minutes.
FIG. 6 is a graph illustrating blood glucose change after administering glucose to each specimen.

Row | Molecule | bioavailability (in vivo) | glucose regulating ability (blood glucose change, FIG. 6) (blood glucose)
1 | CC[C@H](C)[C@H](NC(=O)[C@H](CCC(=O)O)NC(=O)[C@H](CO)NC(=O)[C@@H](NC(=O)[C@@H](N)CO)C(C)C)C(=O)N[C@@H](CCC(N)=O)C(=O)N[C@@H](CC(C)C)C(=O)N[C@@H](CCSC)C(=O)N[C@@H](Cc1c[nH]cn1)C(=O)N[C@@H](CC(N)=O)C(=O)N[C@@H](CC(C)C)C(=O)NCC(=O)N[C@@H](CCCCN)C(=O)N[C@@H](Cc1c[nH]cn1)C(=O)N[C@@H](CC(C)C)C(=O)N[C@@H](CC(N)=O)C(=O)N[C@@H](CO)C(=O)N[C@@H](CCSC)C(=O)N[C@@H](CCC(=O)O)C(=O)N[C@@H](CCCNC(=N)N)C(=O)N[C@H](C(=O)N[C@@H](CCC(=O)O)C(=O)N[C@@H](Cc1c[nH]c2ccccc12)C(=O)N[C@@H](CC(C)C)C(=O)N[C@@H](CCCNC(=N)N)C(=O)N[C@@H](CCCCN)C(=O)N[C@@H](CCCCN)C(=O)N[C@@H](CC(C)C)C(=O)N[C@@H](CCC(N)=O)C(=O)N[C@@H](CC(=O)O)C(=O)N[C@H](C(=O)N[C@@H](Cc1c[nH]cn1)C(=O)N[C@@H](CC(N)=O)C(=O)N[C@@H](Cc1ccccc1)C(=O)N[C@@H](CSC1CC(=O)N(CCC(=O)NC(CCCCNC(=O)CCCCC2SCC3NC(=O)NC32)C(=O)NC(CCCCNC(=O)CCCCC2SCC3NC(=O)NC32)C(=O)NC(CCCCNC(=O)CCCCC2SCC3NC(=O)NC32)C(N)=O)C1=O)C(=O)O)C(C)C)C(C)C (stereo partly shown) [Embodiment 9] | 4.9% | 
2 | CC[C@H](C)[C@H](NC(=O)[C@H](CCC(=O)O)NC(=O)[C@H](CO)NC(=O)[C@@H](NC(=O)[C@@H](N)CO)C(C)C)C(=O)N[C@@H](CCC(N)=O)C(=O)N[C@@H](CC(C)C)C(=O)N[C@@H](CCSC)C(=O)N[C@@H](Cc1c[nH]cn1)C(=O)N[C@@H](CC(N)=O)C(=O)N[C@@H](CC(C)C)C(=O)NCC(=O)N[C@@H](CCCCN)C(=O)N[C@@H](Cc1c[nH]cn1)C(=O)N[C@@H](CC(C)C)C(=O)N[C@@H](CC(N)=O)C(=O)N[C@@H](CO)C(=O)N[C@@H](CCSC)C(=O)N[C@@H](CCC(=O)O)C(=O)N[C@@H](CCCNC(=N)N)C(=O)N[C@H](C(=O)N[C@@H](CCC(=O)O)C(=O)N[C@@H](Cc1c[nH]c2ccccc12)C(=O)N[C@@H](CC(C)C)C(=O)N[C@@H](CCCNC(=N)N)C(=O)N[C@@H](CCCCN)C(=O)N[C@@H](CCCCN)C(=O)N[C@@H](CC(C)C)C(=O)N[C@@H](CCC(N)=O)C(=O)N[C@@H](CC(=O)O)C(=O)N[C@H](C(=O)N[C@@H](Cc1c[nH]cn1)C(=O)N[C@@H](CC(N)=O)C(=O)N[C@@H](Cc1ccccc1)C(=O)N[C@@H](CSC1CC(=O)N(CCC(=O)NC(CCCCNC(=O)CCCCC2SCC3NC(=O)NC32)C(=O)NC(CCCCNC(=O)CCCCC2SCC3NC(=O)NC32)C(N)=O)C1=O)C(=O)O)C(C)C)C(C)C (stereo partly shown) [Embodiment 8] | 7.8% | 
3 | Embodiment 6: polypeptide of SEQ. ID. No. 8 bonded to biotin moiety B3 at C30 (H[Aib]QGTFTSDYSKYLDEQAAKEFVQWLMNTC(biotin moiety B3); reading uncertain) |  | glucose regulating ability
4 | Embodiment 5: polypeptide of SEQ. ID. No. 8 bonded to biotin moiety B2 at C30 (H[Aib]QGTFTSDYSKYLDEQAAKEFVQWLMNTC(biotin moiety B2); reading uncertain) |  | glucose regulating ability
